From patent US20160152729A1 (Novo Nordisk, published 2016)
Substitutions are numbered along the chain they refer to.

B1: mAb 2F22 (antibody, IgG1, V domains shown)
VH: QVQLKQSGPGLVQPSQSLSITCTVSGFSLTNYGVHWVRQSPGKGLEWLAVIWRGGSIDYNAAFMSRLSITKDNSKSQVFFKMNSLQADDTAIYYCAKNSHGNYVGYAMDYWGQGTSVTVSS
VL: GIVMTQSQKFMSTTVGDRVSITCKASQSVGPAVAWYQQKPGQSPKLLIYSASNRYTGVPDRFTGSGSGADFTLTISNLHSEDLADYFCQQYTSYPTFGGGTKLEIKR
notes: Murine mIgG1, kappa light chain
B2: mAb 2F3 (antibody, IgG1, V domains shown)
VH: B1 VH with T30S, N31S, A49G, I57T, Y59F, L67V, I69F
VL: DIVMTQSQKFMSTTVGDKVSIPCKASENVGAAVAWYQQKPGQSPTLLIYSASNRYTGIPDRFTGSGSGTDFTLTIRTVQSEDLADYFCQQYTNYPTFGGGTKLEIKR
notes: as for B1
B3: mAb 1F91 (antibody, IgG1, V domains shown)
VH: DVQLQESGPGLVKPSQSLSLTCTVSGYSITSDYAWNWIRQFPGNKLEWMGYISYSGSTSYNPSLKSRISITRDTSKNQFFLQLNSVTTEDTATYYCARWAYDGPWGQGTLVTVSA
VL: QIVLSQSPALLSASPGEKVTMTCRASSSVSHMHWYQQKPGSSPKPWIYATSNLASGVPARFSGSGSGTSYSLTITRVEAEDAATYYCQQWSSNPFTFGSGTKLEIKR
notes: as for B1
B4: mAb 2F35 (antibody, IgG1, V domains shown)
VH: EVQLQQSGAELVRPGALVKLSCKASGFNIKDYYIHWVKQRPEQGLEWIGWIDPENGNTIFDPKFQGRASITADTSSNTAYLQLSSLTSEDTAVYYCAGRWYAMDYWGQGTSVTVSS
VL: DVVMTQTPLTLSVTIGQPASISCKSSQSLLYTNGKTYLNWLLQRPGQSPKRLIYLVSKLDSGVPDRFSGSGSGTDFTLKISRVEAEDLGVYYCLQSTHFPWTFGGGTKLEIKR
notes: as for B1
B5: FXa (enzyme)
chain 1: ANSFLEEMKKGHLERECMEETCSYEEAREVFEDSDKTNEFWNKYKDGDQCETSPCQNQGKCKDGLGEYTCTCLEGFEGKNCELFTRKLCSLDNGDCDQFCHEEQNSVVCSCARGYTLADNGKACIPTGPYPCGKQTLER
chain 2: IVGGQECKDGECPWQALLINEENEGFCGGTILSEFYILTAAHCLYQAKRFKVRVGDRNTEQEEGGEAVHEVEVVIKHNRFTKETYDFDIAVLRLKTPITFRMNVAPACLPERDWAESTLMTQKTGIVSGFGRTHEKGRQSTRLKMLEVPYVDRNSCKLSSSFIITQNMFCAGYDTKQEDACQGDSGGPHVTRFKDTYFVTGIVSWGEGCARKGKYGIYTKVTAFLKWIDRSMKTRGLPKAKSHAPEVITSSPLK
B6: mAb 1F56 (antibody, V domains shown)
VH: B3 VH
VL: B3 VL
notes: murine antibody from hybridoma
B7: Fab 0295 (Fab, V domains shown)
VH: B1 VH
VL: B1 VL
notes: Chimeric Fab of mAb 2F22; heavy chain truncated after the first cysteine of the human IgG4 hinge
B8: Fab 0296 (Fab, V domains shown)
VH: B1 VH
VL: B1 VL
notes: Chimeric Fab of mAb 2F22; heavy chain truncated after the human IgG4 hinge lysine; also called anti-TFPI2F22 Fab

Biological target: T1, human TFPIα (human, UniProt P10646 29-304)
Assay: cell-based or functional assay

In order of rising “Thrombin peak height (Peak); thrombin generation in FVIII-neutralised plasma + 20 nM TFPIα, 200 nM antibody” value:
1. B3  0 nM
2. B4  0 nM
3. B2  20.9 nM
4. B1  23.7 nM

Biological target: T1, human TFPIα
Assay: SPR Biacore T200; TFPIα held by captured mAb 2F22

For B5, the “fold decrease of the affinity for TFPI to FXa, against TFPI bound to mAb 4F110” value was greater than 30 fold.

Biological target: T1, human TFPIα
Assay: cell-based or functional assay
Remark: another data set of the same source

In order of rising “FXa activity (%); remaining FXa amidolytic activity after 40 min, 32 nM mAb pre-incubated with 8 nM TFPIα” value:
1. B6  5.5%
2. B3  5.8%
3. B4  13.4%
4. B2  48.9%
5. B1  50.4%

Biological target: T1, human TFPIα
Assay: cell-based or functional assay
Remark: another data set of the same source

In order of rising “Thrombin peak height (Peak); thrombin generation in FVIII-neutralised plasma + 5 nM TFPIα, 10 nM antibody” value:
1. B3  3.6 nM
2. B4  3.6 nM
3. B6  3.7 nM
4. B2  28.6 nM
5. B1  46.5 nM

In order of rising “Thrombin peak height (Peak); thrombin generation in FVIII-neutralised plasma, no TFPIα added (plasma TFPI), 10 nM antibody” value:
1. B4  30.4 nM
2. B3  34.6 nM
3. B6  35.2 nM
4. B2  88.4 nM
5. B1  100 nM

In order of falling “time to peak (ttPeak); thrombin generation in FVIII-neutralised plasma + 5 nM TFPIα, 10 nM antibody” value:
1. B4  70.3 min
2. B3  51.8 min
3. B6  47.8 min
4. B2  13.8 min
5. B1  11.3 min

In order of rising “time to peak (ttPeak); thrombin generation in FVIII-neutralised plasma, no TFPIα added (plasma TFPI), 10 nM antibody” value:
1. B6  8.9 min
2. B3  9 min
3. B1  9.1 min
4. B2  9.3 min
5. B4  9.6 min

Biological target: T1, human TFPIα
Assay: SPR Biacore T200; Fab captured on Human Fab Binder; TFPIα as analyte; 1:1 model; 25 °C
Experimental: Human Fab Binder (Human Fab Capture Kit, GE Healthcare) was immobilized to a series S CM4 sensor chip (GE Healthcare) in flow-cells 1-4 at 9000-10000 response units (RU) using the amine coupling protocol available within the Biacore T-200 control software (GE Healthcare) and the reagents provided with the Amine Coupling Kit (GE Healthcare). […] Different concentrations of human TFPIα were tested by diluting the sample in running buffer (10 mM HEPES, pH 7.4, 300 mM NaCl, 5 mM CaCl₂, 0.05% Surfactant P20, 1 mg/ml BSA). Each sample was assayed using 300 seconds of contact time followed by 600 seconds of dissociation time at 50 μl/min flow rate. A buffer blank was also assayed. The sensor surface was regenerated with 10 mM Glycine pH 2.1 with two cycles each of 30 seconds at 50 μl/min flow rate. The analysis temperature was 25° C. and the sample compartment temperature 10° C.
(§1) The Biacore T200 Evaluation software (version 2.0) was used to analyse the data. Determination of binding constants (kₐ, kd, KD) was obtained assuming a 1:1 interaction of TFPI and the monoclonal antibody of interest.

In order of rising Kd:
1. B7  0.41 nM
2. B8  0.72 nM

Biological target: T1, human TFPIα
Assay: cell-based or functional assay
Remark: another data set of the same source

In order of falling “FXa activity (%); FXa generated after 30 min by FVIIa/Innovin/FX with 4 nM TFPIα, 64 nM antibody” value:
1. B1  40.5%
2. B2  36.6%
3. B6  18.4%
4. B4  18.3%
5. B3  13.9%

Biological target: T1, human TFPIα
Assay: cell-based or functional assay
Remark: another data set of the same source

In order of falling “FVIIa/sTF activity (%); 150 nM TFPIα, 200 nM antibody” value:
1. B2  88.6%
2. B1  88.3%
3. B3  82.2%
4. B4  61.4%

In order of falling “FXa activity (%) after 100 min incubation; 4 nM TFPIα, 20 nM antibody” value:
1. B1  60.8%
2. B2  58.1%
3. B3  5.1%
4. B4  4.2%

Biological target: T1, human TFPIα
Assay: SPR Biacore T200; TFPIα held by captured mAb 2F48

In the case of B5, the “fold decrease of the affinity for TFPI to FXa, against TFPI bound to mAb 4F110” value is reported as less than 10 fold.

Biological target: T2, human TFPI (1-79) (human, UniProt P10646 29-107)
T2 construct: Acidic N-terminal region and KPI-1 domain
Assay: SPR Biacore T200; mAb captured on anti-mouse Ig; TFPI as analyte; 1:1 model
Text: (§2) Binding interaction data were obtained by means of Surface Plasmon Resonance in a Biacore T200 instrument. Polyclonal rabbit anti-mouse immunoglobulin (Mouse Antibody Capture Kit, GE Healthcare) was immobilized to a series S CM4 sensor chip (GE Healthcare) in flow-cells 1-4 using the amine coupling protocol available with the Biacore T-200 control software version 2.0 (GE Healthcare) and the reagents provided with the Amine Coupling Kit (GE Healthcare). The relevant mouse monoclonal antibody was captured in flow cell 2, 3, or 4 at a fixed concentration. Different concentrations of human TFPIα or TFPI (1-79) were tested by diluting the sample in running buffer (10 mM HEPES, pH 7.4, 300 mM NaCl, 5 mM CaCl₂, 0.05% Surfactant P20, 1 mg/ml BSA). Each sample was assayed using 300 seconds of contact time followed by 420-600 seconds of dissociation time at 30 μl/min flow rate. A buffer blank was also assayed. The sensor surface was regenerated with 10 mM Glycine pH 1.7 either for 180 sec at 30 μl/min flow rate or with two cycles each of 30 seconds at 30 μl/min flow rate.
as §1

In order of rising Kd:
1. B2  0.561 nM
2. B1  0.965 nM
3. B4  13.3 nM
4. B6  13.5 nM
5. B3  15.1 nM

In order of falling koff:
1. B6  0.00505 s⁻¹
2. B3  0.005 s⁻¹
3. B4  0.00251 s⁻¹
4. B2  0.000154 s⁻¹

In order of falling kon:
1. B6  375000 M⁻¹ s⁻¹
2. B3  330000 M⁻¹ s⁻¹
3. B2  274000 M⁻¹ s⁻¹
4. B4  188000 M⁻¹ s⁻¹

Biological target: T1, human TFPIα
Assay: as above
Text: as §2, §1

In order of falling Kd:
1. B3  10 nM
2. B6  9.81 nM
3. B4  6.27 nM
4. B1  0.688 nM
5. B2  0.448 nM

In order of falling koff:
1. B6  0.00361 s⁻¹
2. B3  0.00349 s⁻¹
3. B4  0.00141 s⁻¹
4. B2  7.69e-05 s⁻¹

In order of falling kon:
1. B6  368000 M⁻¹ s⁻¹
2. B3  347000 M⁻¹ s⁻¹
3. B4  224000 M⁻¹ s⁻¹
4. B2  172000 M⁻¹ s⁻¹
